From the supplement of paper PMC10899765

Legend:
Conditions in all cases: 20 nM; 72 h
[1] = test system: MCF10A; experiment: one-nucleolus phenotype percent effect (relative to siNT 0% and siNOL11 100%); higher = more cells with one nucleolus (ribosome biogenesis inhibition)
Procedure: (§1)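 After 72 h, cells were fixed and stained with Hoechst and anti-fibrillarin, and nucleoli per nucleus were counted with CellProfiler. Values are plate-adjusted percent effect for the one-nucleolus and 5+ nucleoli phenotypes, normalised to siNT (0%) and to the positive controls siNOL11 or siKIF11 (100%), as the mean of biological triplicates. Percent viability is the nuclei count relative to siNT.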

[2] = test system: MCF10A; experiment: percent viability (nuclei count relative to siNT); higher = more viable cells
Procedure: as §1

[3] = test system: MCF10A; experiment: 5+ nucleoli phenotype percent effect (relative to siNT 0% and siKIF11 100%); higher = more cells with five or more nucleoli
Procedure: as §1

Sequence | one-nucleolus phenotype percent effect [1] [%] | percent viability [2] [%] | 5+ nucleoli phenotype percent effect [3] [%]
GAGGGCAGCGUGGGUGUGGCGGA [hsa-miR-4632-5p] | 0.575 | 64.3 | 13.1
GGGAUUCUGUAGCUUCCU [hsa-miR-4320] | 50 | 28.6 | -18.6
ACUGCUGAGCUAGCACUUCCCG [hsa-miR-93-3p] | 0.758 | 33.2 | -7.82
CUGGGAGAAGGCUGUUUACUCU [hsa-miR-30c-2-3p] | 45.5 | 21.9 | -29.4
AGAAUUGCGUUUGGACAAUCAGU [hsa-miR-2964a-3p] | 34.8 | 28.5 | -29.2
UUUCUGUCUUUUCUGGUCCAG [hsa-miR-4743-3p] | 57.9 | 17.7 | -25.7
CUCUCACCACUGCCCUCCCACAG [hsa-miR-1229-3p] | -20.5 | 75.8 | 24.9
AAACUAAUCUCUACACUGCUGC [hsa-miR-3129-3p] | -4.83 | 98.8 | 5.92
CCAGGAGAUCCAGAGAGAAU [hsa-miR-4768-3p] | 0.373 | 32.6 | 1.69
AUCGUGCAUCCCUUUAGAGUGU [hsa-miR-517b-3p] | 14.6 | 35.2 | -20.3
ACUCAUUCUCCUCUGUCCAG [hsa-miR-6758-3p] | -26.2 | 147 | 81.4
CUGAAUAGCUGGGACUACAGGU [hsa-miR-5585-3p] | -12.6 | 44.1 | 16.9
UGGGAGAGAGGACUGUGAGGC [hsa-miR-8085] | 21.4 | 12.6 | -1.75
UUGGGAUGGUAGGACCAGAGGGG [hsa-miR-6728-5p] | -15.8 | 50.3 | 24.3
ACUGGGGGCUUUCGGGCUCUGCGU [hsa-miR-637] | 50.5 | 22.7 | -19.4
GACAAUUGUUGAUCUUGGGCCU [hsa-miR-7849-3p] | 8.55 | 74.7 | -19.1
UUUGUUCGUUCGGCUCGCGUGA [hsa-miR-375] | 0.601 | 59.7 | 5.82
UUGUUCUUUGGUCUUUCAGCCA [hsa-miR-4677-5p] | 20.3 | 42.5 | -26.7
UAUUCAUUUAUCCCCAGCCUACA [hsa-miR-664a-3p] | -21 | 121 | 26
UGGGAGAGCAGGGUAUUGUGGA [hsa-miR-6731-5p] | 43 | 6.77 | -22.2
GAGCCAGUGGUGAGACAGUGA [hsa-miR-4676-5p] | -15.1 | 53.3 | -5.34
UGUGACUUUAAGGGAAAUGGCG [hsa-miR-3164] | 19.5 | 22.9 | 22
CAACCUCGACGAUCUCCUCAGC [hsa-miR-3150a-5p] | -25.7 | 171 | 22.1
CUGGGAGAAGAGUGGUGAAGA [hsa-miR-6788-5p] | 10 | 24.9 | -4.55

Sequence | one-nucleolus phenotype percent effect [1] [%] | percent viability [2] [%] | 5+ nucleoli phenotype percent effect [3] [%]
AUACAUGUCAGAUUGUAUGCC [hsa-miR-4666a-5p] | -5.95 | 52.7 | 3.52
UCUGCACUGUGAGUUGGCUGGCU [hsa-miR-4793-3p] | 10.7 | 44.7 | -3.16
UUGAGGAAAAGAUGGUCUUAUU [hsa-miR-3915] | -3.96 | 36.5 | -19
UCUGCAAGUGUCAGAGGCGAGG [hsa-miR-2276] | -15.8 | 160 | 38.4
CAUGCCUUGAGUGUAGGACCGU [hsa-miR-532-5p] | 19.3 | 19.5 | -20.1
UGUUGUACUUUUUUUUUUGUUC [hsa-miR-3613-5p] | -10.4 | 114 | 4.98
AAAACCGUCUAGUUACAGUUGU [hsa-miR-1537] | -11.1 | 73.7 | 13.9
UCCAGGGAGACAGUGUGUGAG [hsa-miR-7113-5p] | 23.5 | 32.5 | -2.05
UACAGCCCUGUGAUCUUUCCAG [hsa-miR-6856-3p] | -21 | 74.9 | 21
CGGGUGGAUCACGAUGCAAUUU [hsa-miR-363-5p] | -21.2 | 4.57 | 161
UCCAGCUCGGUGGCAC [hsa-miR-4267] | -0.0012 | 34.5 | 11.3
UGUCUUUCUUCUCUCCCUUGCAG [hsa-miR-6830-3p] | 58 | 19.9 | -30.3
UUGUGUCAAUAUGCGAUGAUGU [hsa-miR-592] | 31.3 | 69.9 | -26.9
CCAGGGGGAUGGGCGAGCUUGGG [hsa-miR-6798-5p] | -16.7 | 77.9 | 13.9
CUCCUCCCCUGCCUGGCCCAG [hsa-miR-6749-3p] | -2.87 | 48.8 | 0.0227
ACAGACUUGCUGUGAUGUUCA [hsa-miR-499b-5p] | 2.65 | 35.2 | -7.28
UUCACAGGGAGGUGUCAU [hsa-miR-513a-5p] | 24.8 | 68 | -25.5
UGACCUUUGCCUCUCCCCUCAG [hsa-miR-6759-3p] | 51.3 | 20.7 | -31.2
GUGAGGAGGGGCUGGCAGGGAC [hsa-miR-6858-5p] | -12.2 | 84.1 | 7.04
UGGAUGUGGAAGGAGUUAUCU [hsa-miR-4764-5p] | -0.862 | 7.49 | -8.02
AGGGACCUGAGUGUCUAAG [hsa-miR-3649] | 9.08 | 71 | -0.628
AAAAGCUGGGUUGAGAGGGCAA [hsa-miR-320b] | 8.28 | 59 | -10.2
GCCCCGGGCAGUGUGAUCAUC [hsa-miR-5587-3p] | -20.5 | 108 | 18.8
UAACACUGUCUGGUAAAGAUGG [hsa-miR-141-3p] | -19.9 | 83 | 44.6
